The source of these data is FireProtDB (doi:10.1016/j.ijbiomac.2020.05.059).

Several values for one entry are separate records, joined by “and”; a condition that tells them apart may be missing. Identical values can stand only once.

The conditions of this data set: Equus caballus, pH 6, 25 °C, transition: 2.
The mark [1] stands for this setting: GdnHCl, CD, sodium cacodylate, NaCl, reversible: yes, structure 1HRC.
Where [2] appears, read: GdnHCl, sodium cacodylate 100 mM, NaCl 100 mM, reversible: no, structure 1HRC.
[3] abbreviates: Urea, CD, sodium cacodylate, NaCl, reversible: yes, structure 1HRC.
Setting [4] is: Urea, sodium cacodylate 100 mM, NaCl 100 mM, reversible: no, structure 1HRC.
[5] abbreviates: GdnHCl, CD, sodium cacodylate, NaCl, reversible: yes.

Sequence of Cytochrome c wild type, P00004 (P00004 whole entry): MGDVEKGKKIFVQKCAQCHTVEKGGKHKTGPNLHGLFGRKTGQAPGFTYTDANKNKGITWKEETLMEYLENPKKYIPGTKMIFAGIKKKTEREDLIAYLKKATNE
Sequence of Cytochrome c L95I, P00004 (P00004 whole entry L95I): as the sequence (P00004 whole entry) above, with L95I counted along it
Sequence of Cytochrome c L95V, P00004 (P00004 whole entry L95V): as the sequence (P00004 whole entry) above, with L95V counted along it

Turning to Cytochrome c L95I, P00004, under setting [1], the “ddG of mutation (higher = less stable)” value was 1.31 kcal/mol and 1.51 kcal/mol; the denaturant m value is 3.59 kcal/mol/M and 3.64 kcal/mol/M; the “denaturant midpoint (higher = more stable)” value (“denaturant midpoint” below) was 2.14 M and 2.15 M; the unfolding free energy was 7.69 kcal/mol and 7.95 kcal/mol. Besides, under setting [2], the “ddG of mutation (higher = less stable)” value was 1.54 kcal/mol and 1.1 kcal/mol and 1.51 kcal/mol; the denaturant m value was 3.65 kcal/mol/M and 3.49 kcal/mol/M and 3.64 kcal/mol/M; the “denaturant midpoint” value is 2.18 M and 2.06 M and 2.15 M; the unfolding free energy was 7.96 kcal/mol and 7.17 kcal/mol and 7.95 kcal/mol. Under setting [3], the “ddG of mutation (higher = less stable)” value is 1.73 kcal/mol and 1.68 kcal/mol; the denaturant m value is 1.48 kcal/mol/M and 1.47 kcal/mol/M; the “denaturant midpoint” value was 5.87 M and 5.89 M; the unfolding free energy is 8.68 kcal/mol and 8.7 kcal/mol. For the same substance, under setting [4], the “ddG of mutation (higher = less stable)” value is 1.68 kcal/mol and 1.83 kcal/mol; the denaturant m value was 1.49 kcal/mol/M and 1.47 kcal/mol/M; the “denaturant midpoint” value was 5.9 M and 5.89 M; the unfolding free energy is 8.78 kcal/mol and 8.65 kcal/mol and 8.7 kcal/mol.
As for Cytochrome c L95V, P00004, under setting [1], the “ddG of mutation (higher = less stable)” value is 1.66 kcal/mol and 1.82 kcal/mol; the denaturant m value is 3.54 kcal/mol/M and 3.61 kcal/mol/M; the “denaturant midpoint” value was 2.07 M and 2.11 M; the unfolding free energy is 7.34 kcal/mol and 7.64 kcal/mol. For the same substance, the “denaturant midpoint” value under setting [2] was 2.1 M and 2.01 M and 2.11 M. Further, under setting [3], the “ddG of mutation (higher = less stable)” value was 2.36 kcal/mol, the denaturant m value amounted to 1.47 kcal/mol/M, the “denaturant midpoint” value is 5.46 M and the unfolding free energy was found to be 8.02 kcal/mol. Moreover, under setting [4], the denaturant m value was 1.48 kcal/mol/M and 1.47 kcal/mol/M; the “denaturant midpoint” value was 5.46 M and 5.43 M.
As for Cytochrome c wild type, P00004, under setting [5], the denaturant m value is 3.64 kcal/mol/M and 3.73 kcal/mol/M; the “denaturant midpoint” value is 2.47 M and 2.53 M; the unfolding free energy was 9 kcal/mol and 9.46 kcal/mol. In addition, the unfolding free energy (Urea, sodium cacodylate 100 mM, NaCl 100 mM, reversible: yes) is 10.5 kcal/mol and 10.3 kcal/mol and 10.4 kcal/mol.
